Data: article PMC4889046 (PLoS ONE, 2016)

Biological target: the molecule itself
Assay: cross-linking

B1: APOBEC4 fused to three C-terminal HA-tags (A4-HA) (natural protein, human, UniProt Q8WW27 1-367, looked up)
chain: MEPIYEEYLANHGTIVKPYYWLSFSLDCSNCPYHIRTGEEARVSLTEFCQIFGFPYGTTFPQTKHLTFYELKTSSGSLVQKGHASSCTGNYIHPESMLFEMNGYLDSAIYNNDSIRHIILYSNNSPCNEANHCCISKMYNFLITYPGITLSIYFSQLYHTEMDFPASAWNREALRSLASLWPRVVLSPISGGIWHSVLHSFISGVSGSHVFQPILTGRALADRHNAYEINAITGVKPYFTDVLLQTKRNPNTKAQEALESYPLNNAFPGQFFQMPSGQLQPNLPPDLRAPVVFVLVPLRDLPPMHMGQNPNKPRNIVRHLNMPQMSFQETKDLGRLPTGRSVEIVEITEQFASSKEADEKKKKKGKK
notes: also called A4-3xHA; pA4-HA; not shown: 3xHA, C-terminal, kept
- stoichiometry N: 2
